{"source": "paper PMC10035860", "origin": "cited, not measured here", "target": "growth hormone receptor (Homo sapiens) (UniProt P10912)", "sequence (P10912 19-638)": "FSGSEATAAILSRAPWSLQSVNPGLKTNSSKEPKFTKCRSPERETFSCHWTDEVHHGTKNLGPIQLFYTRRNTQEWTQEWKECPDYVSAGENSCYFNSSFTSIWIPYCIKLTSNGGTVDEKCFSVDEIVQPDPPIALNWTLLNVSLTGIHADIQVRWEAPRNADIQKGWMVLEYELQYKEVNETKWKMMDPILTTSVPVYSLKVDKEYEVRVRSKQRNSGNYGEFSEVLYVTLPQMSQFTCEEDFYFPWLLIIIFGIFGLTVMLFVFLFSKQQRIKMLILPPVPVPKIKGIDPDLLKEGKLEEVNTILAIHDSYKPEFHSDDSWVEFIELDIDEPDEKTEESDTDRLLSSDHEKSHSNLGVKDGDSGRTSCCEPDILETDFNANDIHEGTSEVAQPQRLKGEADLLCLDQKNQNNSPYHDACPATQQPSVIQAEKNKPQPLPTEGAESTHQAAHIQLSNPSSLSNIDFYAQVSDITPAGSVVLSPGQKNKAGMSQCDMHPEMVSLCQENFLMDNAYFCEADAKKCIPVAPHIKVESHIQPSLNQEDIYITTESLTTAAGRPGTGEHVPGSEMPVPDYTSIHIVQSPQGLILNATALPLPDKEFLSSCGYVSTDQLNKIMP"}
{"substance": "growth hormone (from UniProt P01241)", "values": [{"measurement": "Kd", "value": 0.3, "unit": "nM"}]}
